{"source": "paper PMC3107197", "target": "GFP-tagged Fab1p (yeast) [yeast]", "test": "co-immunoprecipitation (IP: Fab1p-GFP), densitometry", "details": "Bound fraction; parent: 1", "data": [{"substance": "myc-tagged Fig4p (wildtype, yeast) mutant I59T [yeast] / GFP-tagged Fab1p (yeast) [yeast] chain 1 I59T", "values": [{"measurement": "ratio to parent", "value": 0.4}]}]}
